# According to patent US5777085, “Humanized antibodies reactive with GPIIB/IIIA” (Protein Design Labs, Inc., dated 1998):
# Biological target: GPIIb/IIIa (human, UniProt P08514)
# Assay: competitive binding on HEL 92.1.7 cells, radioiodinated mouse C4G1 as tracer
# Experimental: The affinities of the humanized C4G1 antibody, Fab fragment and F(ab')_2-1 fragment were determined by competitive binding with the respective mouse C4G1 antibody and fragments. Purified human platelets were used as source of the GPIIb/IIIa antigen. The platelets were purified from buffy coats from normal human donors by centrifugation on ficoll-hypaque. Increasing amounts of humanized or mouse competitor antibody or fragment was added to 4.5 ng of radioiodinated tracer C4G1 antibody (3.5 µCi/ug) and incubated with 3×10^7 platelets in 0.2 ml of modified Tyrode's buffer for 1 hr. at room temperature. Cells were washed with 2 ml of ice-cold buffer and pelleted. The radioactivities were measured, and the concentrations of bound and free tracer antibody were calculated (FIG. 8). The binding affinities of the various antibodies and fragments were calculated as in Queen et al., Proc. Nat. Acad. Sci. USA 86, 10029 (1989). […] The same result was obtained when competitive binding was performed with HEL 92.1.7 cells as source of GPIIb/IIIa antigen. Moreover all the actual binding affinities to these cells were about 10^8 M^-1 or higher.
row,Ka,Binder
1,> 1e+08 M⁻¹,"humanized C4G1 antibody (antibody, V domains shown) VH: QVQLVQSGAEVKKPGSSVKVSCKASGYAFTNYLIEWVRQAPGQGLEWIGVIYPGSGGTNYNEKFKGRVTLTVDESTNTAYMELSSLRSEDTAVYFCARRDGNYGWFAYWGQGTLVTVSS VL: DIQMTQTPSTLSASVGDRVTISCRASQDINNYLNWYQQKPGKAPKLLIYYTSTLHSGVPSRFSGSGSGTDYTLTISSLQPDDFATYFCQQGNTLPWTFGQGTKVEVKR"
2,≥ 1e+08 M⁻¹,"mouse C4G1 antibody (antibody, V domains shown) VH: QVQLQQSGAELVGPGTSVRVSCKASGYAFTNYLIEWVKQRPGQGLEWIGVIYPGSGGTNYNEKFKGKATLTVDKSSTTAYMQLSSLTSDDSAVYFCARRDGNYGWFAYWGRGTLVTVSA VL: DIQMTQTTSSLSASLGDRVTISCRASQDINNYLNWYQQKPDGIVKLLIYYTSTLHSGVPSRFSGSGSGTDYSLTISNLEQEDIATYFCQQGNTLPWTFGGGTKLEIK"
3,≥ 1e+08 M⁻¹,"mouse C4G1 Fab fragment (Fab, V domains shown) VH: QVQLQQSGAELVGPGTSVRVSCKASGYAFTNYLIEWVKQRPGQGLEWIGVIYPGSGGTNYNEKFKGKATLTVDKSSTTAYMQLSSLTSDDSAVYFCARRDGNYGWFAYWGRGTLVTVSA VL: DIQMTQTTSSLSASLGDRVTISCRASQDINNYLNWYQQKPDGIVKLLIYYTSTLHSGVPSRFSGSGSGTDYSLTISNLEQEDIATYFCQQGNTLPWTFGGGTKLEIK"
4,≥ 1e+08 M⁻¹,mouse C4G1 F(ab')2 fragment (other) VH: QVQLQQSGAELVGPGTSVRVSCKASGYAFTNYLIEWVKQRPGQGLEWIGVIYPGSGGTNYNEKFKGKATLTVDKSSTTAYMQLSSLTSDDSAVYFCARRDGNYGWFAYWGRGTLVTVSA VL: DIQMTQTTSSLSASLGDRVTISCRASQDINNYLNWYQQKPDGIVKLLIYYTSTLHSGVPSRFSGSGSGTDYSLTISNLEQEDIATYFCQQGNTLPWTFGGGTKLEIK
